B1: mAb352 (antibody, V domains shown)
VH: EVQLVESGGGLVKPGGSLRLSCAASGFSFSEYRMNWVRQAPGKGLEWVSFISSSGTYIDYADSVKGRFTISRDNVNNSLYLQMNNLRAGDTAVYYCARGMGIAVRRFDYWGQGTLVSVSS
VL: SYVLTQPPSVSVAPGQTAKITCGGNNIGSESVHWYQQKPGQAPVLVVYDDAVRPSGIPERFSGSNSRNTATLTISRVEAGDEAAYYCQVWDSSTVASFGGGTKLTVL
notes: variable region as the heavy chain of m3 (PDB 7S0X); as the light chain of m3 (PDB 7S0X); IgG (captured by anti-human Fc); source: 293F cells, purified (Protein G Sepharose)
B2: mAb1512 (antibody, V domains shown)
VH: KVQLVQSGGGVVQPGRSQRLSCAASGLTLSEYAMHWVRQAPGKGLEWVAVILSDGTKKEYADSVKGRFTISRDNSKNTLYLQMNSLRAEDTAVYYCATDDNILGHCRSKSCQRNYYHGMDVWGQGTTVSVSS
VL: DIVMTQSPLSLPVTPGEPASISCRSSQSLLHSNGKNYLDWYLQKPGQSPQLLIYLGSDRASGVPDRFSGSGSGTDFTLSISRVEAEDVGVYYCMQALQTPFTFGPGTKVDIK
notes: variable region as the heavy chain of m5 (PDB 7RXP); as the light chain of m5 (PDB 7RXP); IgG (captured by anti-human Fc); source: 293F cells, purified (Protein G Sepharose)
B3: mAb236 (antibody, V domains shown)
VH: EVQLVESGGGLVQPGGSLRLSCVASGFNFTTYSMNWVRQAPGKGLEWVSYISSHSNLIYYATSVKGRFTISRDNAKNSLYLQMNSLRAEDTALYYCARGGSLHPSAGADWIDPWGQGTLVTVSS
VL: SYELTQAPSVSVSPGQTATITCSGDKLGDKFTSWYQQKPGQSPVLVIYQDSKRPSGIPERFSASNSGNTATLTISGTRAMDEADYYCQAWDSNTYVFGTGTRVAVL
notes: variable region as the heavy chain of m2 (PDB 7RXJ); as the light chain of m2 (PDB 7RXJ); IgG (captured by anti-human Fc); source: 293F cells, purified (Protein G Sepharose)
B4: mAb234 (antibody, V domains shown)
VH: EVQLVESGGGLVKPGGSLRLSCAASGFNFSTHIMNWVRQAPGKGLEWVSSISSSGTYIYYADSMKGRFTISRDNPKNSLYLQMNSLRAEDTAVYYCARARGFIQFHYYMDVWGKGTTVAVSS
VL: SYVLTQPPSVSVAPGKTARITCGGNNIGSKSVHWHQQRPGQAPVLVVYDDKIRPSGIPERFSGSNSGNTATLIISRVEAGDEADYYCQVWHSSSDPVVFGGGTKLTVL
notes: variable region as the heavy chain of m1 (PDB 7RXI); as the light chain of m1 (PDB 7RXI); IgG (captured by anti-human Fc); source: 293F cells, purified (Protein G Sepharose)
B5: Fab352 (Fab, V domains shown)
VH: B1 VH
VL: B1 VL
notes: heavy chain of Fab352; light chain of Fab352; From an RTS,S/AS01 vaccinee; alpha-ctCSP class (IGHV3-21 or IGHV3-48 with IGLV3-21 or IGLV3-1); source: ExpiCHO cells, purified (HiTrap Protein G HP, size exclusion chromatography)
B6: Fab1488 (Fab, V domains shown)
VH: EVHLVESGGGLVKPGGSLRLSCAASGFTFSSYTMNWVRQAPGKGLEWVSSISSSSTYIYYADSVRGRFTISRDNAKNSLYLQMNSLRAEDSAVYYCARRAGGFDAYYFDYWGQGTLVTVSS
VL: not shown
notes: heavy chain of Fab1488; light chain of Fab1488; From an RTS,S/AS01 vaccinee; alpha-ctCSP class (IGHV3-21 or IGHV3-48 with IGLV3-21 or IGLV3-1); source: ExpiCHO cells, purified (HiTrap Protein G HP, size exclusion chromatography)
B7: Fab1512 (Fab, V domains shown)
VH: B2 VH
VL: B2 VL
notes: heavy chain of Fab1512 (23-amino-acid CDR H3); light chain of Fab1512; From an RTS,S/AS01 vaccinee; beta-ctCSP class; source: ExpiCHO cells, purified (HiTrap Protein G HP, size exclusion chromatography)
B8: Fab236 (Fab, V domains shown)
VH: B3 VH
VL: B3 VL
notes: heavy chain of Fab236; light chain of Fab236; From an RTS,S/AS01 vaccinee; alpha-ctCSP class (IGHV3-21 or IGHV3-48 with IGLV3-21 or IGLV3-1); source: ExpiCHO cells, purified (HiTrap Protein G HP, size exclusion chromatography)
B9: Fab234 (Fab, V domains shown)
VH: B4 VH
VL: B4 VL
notes: heavy chain of Fab234; light chain of Fab234; From an RTS,S/AS01 vaccinee; alpha-ctCSP class (IGHV3-21 or IGHV3-48 with IGLV3-21 or IGLV3-1); source: ExpiCHO cells, purified (HiTrap Protein G HP, size exclusion chromatography)

T2 sequence (Q7K740 310-375): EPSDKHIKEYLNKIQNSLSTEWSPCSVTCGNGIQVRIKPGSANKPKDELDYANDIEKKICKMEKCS

The target of one assay is T1, biotinylated ctCSP Pf16 peptide (residues 283–375 of P. falciparum 3D7 CSP) (Plasmodium falciparum 3D7, UniProt Q7K740, biotin (position not given)).
T1 construct: circumsporozoite protein (CSP), P. falciparum 3D7, residues 283-375 (C-terminal domain); the results say biotinylated ctCSP (283-375); also called Pf16 C-term peptide; source: made by Biomatik (Wilmington, Delaware)
T1 sequence (Q7K740 283-375): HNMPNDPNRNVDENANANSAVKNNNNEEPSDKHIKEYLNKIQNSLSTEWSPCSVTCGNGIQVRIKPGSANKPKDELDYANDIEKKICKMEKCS
Briefly: ELISA; expressed mAbs screened for reactivity to Pf16 C-term peptide, as previously described [36]. As to conditions: both partners purified. On the technique in general: An ELISA detects its analyte on a solid surface through an enzyme-linked reagent.
In the case of B1, the binding result is “binds”.

For the molecule B2, the binding result is reported as “binds”.

For the molecule B3, the binding result is listed as “binds”.

As for B4, the binding result was “binds”.

Another assay concerns the target T2, αTSR domain or ctCSP (residues 310–375 of P. falciparum 3D7 CSP) (Plasmodium falciparum 3D7, UniProt Q7K740).
T2 construct: circumsporozoite protein (CSP), P. falciparum 3D7, residues 310-375 (αTSR domain), followed by a 6xHis tag; pET28a; also called 3D7 peptide; source: E. coli SHUFFLE, purified (Ni cOmplete resin, gel filtration on Superdex 200)
Briefly: crystal structure; Fab mixed with ctCSP (310-375) in a 2:1 molar ratio, complex purified by size exclusion chromatography, sitting drop vapor diffusion at 20°C. As to conditions: both partners purified. For orientation: SEC sorts molecules by how far they enter the pores of the column.
On to B5, for which the binding result is recorded as “binds”.

Take B6: the binding result is “binds”.

B7: the binding result was “binds”.

Turning to B8, the binding result was “binds”.

In the case of B9, the binding result is listed as “binds”.

The values above are taken from PMC8989322 (PLoS Pathogens, 2022).
